One block for each molecule: values may come before it.
Key:
Experiment in all cases: SEC
[1] = molecular target: ΔN-hGTPBP3 (N154-K492) (human)
[2] = molecular target: mature hGTPBP3 (hGTPBP3-ΔN20, T21-K492) (human)
[3] = molecular target: hGTPBP3 G domain P257H (human)
[4] = molecular target: hGTPBP3 G domain ΔG312-V319 (human)
[5] = molecular target: hGTPBP3 G domain (G249-P426) (human)
[6] = molecular target: hGTPBP3 G domain A322P (human)
SEC = molecular target: the molecule itself

- stoichiometry N [1]: 2
Molecule: ΔN-hGTPBP3 (N154-K492) (domain or fragment)

- stoichiometry N [2]: 2
Molecule: mature hGTPBP3 (hGTPBP3-ΔN20, T21-K492) (enzyme)

- stoichiometry N [3]: 2
Molecule: hGTPBP3 G domain P257H (domain or fragment)

- stoichiometry N [4]: 2
Molecule: hGTPBP3 G domain ΔG312-V319 (domain or fragment)

- stoichiometry N [5]: 2
Molecule: hGTPBP3 G domain (G249-P426) (domain or fragment)

- stoichiometry N [6]: 2
Molecule: hGTPBP3 G domain A322P (domain or fragment)

B1: EcMnmE G domain (G216-G384) (domain or fragment, Escherichia coli, UniProt P25522 216-384, looked up)
chain: GMKVVIAGRPNAGKSSLLNALAGREAAIVTDIAGTTRDVLREHIHIDGMPLHIIDTAGLREASDEVERIGIERAWQEIEQADRVLFMVDGTTTDAVDPAEIWPEFIARLPAKLPITVVRNKADITGETLGMSEVNGHALIRLSARTGEGVDVLRNHLKQSMGFDTNMEG
- stoichiometry N (SEC): 2

Source: publication PMC7969015 (Nucleic Acids Research, 2021)
